The RNAGym collection of RNA variant scans (doi:10.7554/elife.90254)

B1: OR4K15 (parent)
chain: GUUAACGGUCAUAGGCCAUGGAAACUAGGAGCACCAUUUCGCUGCCAGUGAAGAAAUGAACAAAGAAAAUCUGGGCCAGGCAGGCAUCAAAAGAAAUAGUCUUGCGCUCAACCAGAAAGUCUGUAAUCAUUUUAAGGGUA

Variants of: B1
Assay: self-cleavage, relative activity (ratio to wild type); higher = more cleavage; in vitro, sequencing; the parent is a self-cleaving ribozyme

Variant | self-cleavage
A54U A63G | 1.93
U122C A129U | 0.49
A18U A55U | 1.49
A59G A92G | 1.22
A54U A116G | 0.83
A52G U103A | 0.59
A22G U38C | 1.62
A66U A82G | 0.92
G83A U87C | 1.21
U3C U100C | 1.71
C77U U130C | 1.61
A33U U139A | 0.95
U9A A59U | 1.81
A51G A56G | 1.22
U100A U108C | 0.03
G28A U39C | 2.09
A30G A94G | 1.29
A47U U70C | 0.13
A98G A110U | 0.31
U9C A47C | 1.02
U19C A54G | 1.21
A52G G73A | 0.11
A60G A78U | 0.35
U3C A36G | 1.39

Variant | self-cleavage
C107U | 0.02
U9C C40A | 1.25
A4G A5G | 1.25
G7A U72C | 0.27
A54G A59U | 0.71
U12C U38A | 0.89
U122C A125C | 0.72
G31U A36G | 2.23
A5U U43C | 1.2
U39C U131C | 1.05
A82U U131C | 0.24
U9C G99U | 0.63
U108A A129U | 0.03
U37A A62G | 1.37
A55U U122A | 0.96
U19G A24G | 1.16
U12C A59G | 0.86
A134G A135G | 1.25
U57C A135G | 1.34
G20A | 1.55
A98C U127C | 1.94
A24G U97C | 0.1
A22U G123U | 1.96
A24G U103C | 0.32

Variant | self-cleavage
A18U U37G | 1.12
A18G U122A | 0.94
U19C A91U | 1.37
G74A U127C | 0.02
U43A U120A | 1.57
U100C U124A | 2.17
C16U A68G | 1.42
G31A A86U | 0.91
A95G A118G | 0.75
A114G U133C | 0.12
U9C A36G | 0.96
A23G U127G | 1
A23U A47G | 0.67
C76U | 0.05
C109U A114G | 0.2
A5G A78U | 0.46
A116G U132C | 0.54
A11G C101U | 0.38
A60U A118G | 1.58
A56G G119A | 2.09
A33U C35U | 1.93
A64U U132C | 1.49
A51G U133G | 1.24
A78C A91C | 0.19

Variant | self-cleavage
U131C A140G | 0.47
U131C A140U | 1.59
A30U U37C | 0.84
A51G A68C | 1.46
A51G A68G | 0.71
G28U A60G | 1.57
A11G U12A | 1.21
A23G G65A | 0.71
U97C U127C | 1.25
U108C C128U | 0.04
G41A A60G | 1.63
U57A U108A | 0.03
A59U A69G | 1.51
A11G C112U | 0.05
A52C U131C | 1.53
U37C U43C | 2.16
U3C C71U | 0.12
A47C | 0.88
A69G A116G | 0.56
C6U A27G | 2.16
A86C U108A | 0.16
A54G A62U | 1.14
G136A A140U | 2.39
C46U U130C | 1.4

Variant | self-cleavage
U39A U132C | 1.97
U2G A56G | 1.23
G7A A78G | 0.19
A30G A116G | 0.66
A91C A96G | 1.39
A30G C101A | 0.14
U131C G137U | 1.54
U39C U122G | 1.81
A52C A118G | 0.72
U49A A114G | 0.25
A36G G123A | 1.46
A51U A62G | 1.48
A66G G83C | 0.2
G74A A94C | 0.06
U57C A64G | 0.81
C45U A56C | 0.67
U87A A126G | 1.66
U19A A63G | 1.59
A36U C128A | 1.18
U108C U124C | 0
U3C U49C | 0.5
U26C A110G | 0.08
A59U U131A | 0.84
U9C A89G | 1.45

Variant | self-cleavage
U19C U70A | 1.06
C10U U87C | 1.08
A78G U103C | 0.11
A24G U139G | 1.86
A69U A126C | 1.66
A13G G53A | 1.11
G8A A55G | 2.14
A96G U132A | 1.37
A94U U97C | 1.31
U70C U72C | 0.31
A86G C113U | 0.03
A11G A91U | 1.22
A86G U132A | 1.2
A11C U72A | 0.17
A110G A135G | 0.12
U37C G74A | 0.31
A36G C76U | 0.12
A59G A68G | 1.22
U3A | 1
A27G G53C | 1.59
U38C C121U | 1.86
A22U | 1.3
A5U U100G | 1.03
A24C A51U | 1.33

Variant | self-cleavage
C25U A55G | 1.72
A47G A82G | 0.51
G7A G137U | 2.13
A22G U49G | 1.39
A51U G137A | 1.43
U12A A96G | 1.43
A23G A118G | 0.75
U57C U102G | 0.29
A30U A59G | 0.34
U9C A82G | 0.58
A59G A82G | 0.45
U26A U72A | 0.28
A47G A114G | 0.24
A60C U72A | 0.21
A60G U120C | 0.82
U12A A51G | 0.95
A69G A111C | 0.02
A92G A134G | 0.98
A4G A60U | 1.76
U12C A13G | 1.16
A27U G53A | 1.86
A24G U72G | 0.26
A63G U108G | 0.03
A11G A135G | 1.41

Variant | self-cleavage
A118G U133C | 1.23
C16U C32G | 0.15
A118G A134U | 1.03
A94G A95G | 1.9
A82U U127A | 0.04
U9C U19G | 2.03
U19C A114U | 0.11
A67U U131C | 2.18
A69G U133C | 1.33
A78G U130G | 0
A64G A82G | 0.35
A66G G104C | 0.01
U2A A60C | 1.97
A36U A126U | 1.63
U39C G104A | 0.03
C6U U102A | 1.22
A55G A89G | 0.59
U3C A126G | 0.58
A36G A110G | 0.07
A24U A78C | 0.29
U87C U132C | 0.92
A27G U133G | 2.02
A52C A67U | 1.67
A60G A68C | 1.57

Variant | self-cleavage
G8U A23G | 1.93
U9G A91U | 1.26
A66U A94G | 1.36
A47U U131C | 0.54
U9A A96G | 1.16
U102C A117U | 0.83
U38G A114G | 0.79
A60G C105G | 0.01
U19C A59U | 0.81
U19C A90G | 1.39
A55G U131C | 1.63
C6A U127C | 0.49
A24G U132C | 1.31
C113A A114G | 0.01
A111C A140G | 0.01
U87A A125G | 0.68
A68G U139A | 2.25
A78G U127G | 0.27
A47U A117C | 0.24
A18G G75C | 0.16
A114G U132C | 0.24
U26C U102C | 1.65
A62C A118G | 1.46
U87G A140G | 0.8

Variant | self-cleavage
A59U A125G | 0.43
U72A U108C | 0.01
A33U A111G | 0.03
U39A A98G | 1.11
G28C A64G | 0.77
U39A A94C | 1.87
U39C A129G | 1.7
A18G C85U | 0.98
G7U A135U | 2.23
A24G C81U | 0.64
A11G C113G | 0.04
A33G U122A | 0.6
A5G G21A | 1.23
U2C A91U | 0.81
G73A A90G | 0.03
A18G U87C | 1.27
A62G C109U | 0.53
A4G U103A | 1.27
G7U A86G | 1.64
U122C A140G | 1.32
U19A G44A | 2.16
A68G C105G | 0.03
A69G A135G | 0.07
U2C U131A | 1.39

Variant | self-cleavage
U97C A110G | 0.11
U19A A36G | 1.19
U100A A114U | 0.01
A13G A92G | 1.22
A68C | 1.73
U3A A64C | 1.33
U12C A96G | 1.02
A64G A96U | 0.91
C71A U124C | 0.22
A54G A129C | 0.76
A54G A129G | 0.58
U2C A13U | 1.78
A66U U100C | 2.47
A11U A111U | 0.06
U43C A98G | 0.44
A63G A82U | 0.24
C113U U120C | 0.04
A47U U132C | 1.02
C25U A111G | 0.09
A78G A90G | 0.24
A56G A96U | 1.64
A22G U100C | 1.69
U12C C105U | 0.23
G29A U39A | 1.8

Variant | self-cleavage
A98C U122C | 2.2
U49A U72G | 0.14
A95G G99A | 1.52
A110U U131C | 0.65
C40U A116G | 1.57
A47U U102A | 0.45
A47U U102G | 0.28
U39C A89C | 1.38
U57A U131C | 1.07
A30G A86U | 1.37
A63U A91U | 1.05
A27G C105U | 0.24
A54G A96U | 2.04
A24G A98C | 1.76
G29U A90G | 1.1
U97C A140U | 1.02
G21A A68G | 1.55
A36G U132C | 1.72
U103C A116U | 0.23
A4G A110G | 0.4
A64G A69U | 1.58
U39A A51U | 1.74
U37G A52G | 1.48
A36G A62G | 1.94

Variant | self-cleavage
G21A A67G | 1.78
U9A A125G | 0.76
A22G U127C | 0.43
A63G U103C | 1.38
A116C U130C | 0.06
A54G A89U | 1.61
U43A A59G | 1.52
A114G U130C | 0.38
A56G A62U | 2.29
U9C U131C | 1.7
A4G G14A | 1.05
A27G A47U | 0.95
U3C U39C | 1.15
U19C U97C | 1.5
U120A A140G | 1.13
U57C A117C | 0.7
U2A A116G | 0.75
C34U A64G | 0.98
A24C A63G | 1.94
G8C A64G | 2.95
U39C U57A | 0.92
A116G U131C | 0.27
A5G A47C | 1.22
U120C A125U | 1.38

Variant | self-cleavage
C76G A96U | 0.09
A11G A59G | 0.88
A5U A52G | 1.18
U19C A62G | 0.83
U57C U124G | 0.94
U2C G21A | 0.98
U87G A90G | 0.82
A36G A56G | 1.3
U2G A78U | 0.4
A52G A55C | 1.29
A22G C34U | 1.33
U97C U130C | 0.85
G75C U130C | 0.08
A63G G99U | 1.14
A78U A89U | 0.35
A86C U127C | 0.83
A52G A116C | 0.11
A30G C45U | 1.06
A13G U131C | 1.01
A11G U120C | 0.35
U19C A64U | 1.45
C42U A129G | 1.47
